# Measured values reported in patent US20260125446A1 (Eli Lilly, published 2026).
# Where a chain is given by its changes, count along the chain named. In names and notes the source's numbering stands.
# B1: RLN Analog 3 (other)
# chain: EVQLLESGGGLVQPGGSLRLSCAASGRYIDETAVAWFRQAPGKEREFVAGIGGGVDITYYADSVKGRFTISRDNSKNTLYLQMNSLRPEDTAVYYCAARPGRPLITSKVADLYPYWGQGTLVTVSSGGGGQGGGGQGGGGQGGGGQGGGGQSWMEEVIKLCGRELVRAQIAICGMSTWSGGGSGGSGGGQLYSALANKCCHVGCTKRSLARFC
# notes: Single-chain fusion: VHH - (G4Q)5 L1 - RLN2 B chain (desB1) - L2 - RLN2 A chain
# B2: RLN Analog 7 (other)
# chain: B1 chain with E44G
# notes: as for B1
# B3: RLN Analog 1 (other)
# chain: EVQLLESGGGLVQPGGSLRLSCAASGRYIDETAVAWFRQAPGKEREFVAGIGGGVDITYYADSVKGRFTISRDNSKNTLYLQMNSLRPEDTAVYYCAARPGRPLITSKVADLYPYWGQGTLVTVSSGGGGQGGGGQGGGGQGGGGQGGGGQQLYSALANKCCHVGCTKRSLARFCGGGSGGSGGGSWMEEVIKLCGRELVRAQIAICGMSTWS
# B4: RLN Analog 14 (other)
# chain: EVQLLESGGGLVQPGGSLRLSCAASGRYIDETAVAWFRQAPGKGREFVAGIGGGVDITYYADSVKGRFTISRDNSKNTLYLQMNSLRPEDTAVYYCAARPGRPLITSKVADLYPYWGQGTLVTVSSPGPQPGPQPGPQPGPQPGPQPGPQPGPQPGPQALANKCCHVGCTKRSLARFCGGGSGGSGGGSWMEEVIKLCGRELVRAQIAICGMSTWS
# notes: Single-chain fusion: VHH - (PGPQ)8 L1 - RLN2 A chain (desA1-4) - L2 - RLN2 B chain (desB1)
# B5: RLN Analog 11 (other)
# chain: EVQLLESGGGLVQPGGSLRLSCAASGRYIDETAVAWFRQAPGKEREFVAGIGGGVDITYYADSVKGRFTISRDNSKNTLYLQMNSLRPEDTAVYYCAARPGRPLITSKVADLYPYWGQGTLVTVSSGGGGQGGGGQGGGGQGGGGQGGGGQSWMEEVIKLCGRELVRAQIAICGMSTWSGGGSGGSGGSGGGALANKCCHVGCTKRSLARFC
# notes: Single-chain fusion: VHH - (G4Q)5 L1 - RLN2 B chain (desB1) - L2 of thirteen residues - RLN2 A chain (desA1-4)
# B6: RLN Analog 12 (other)
# chain: B5 chain with E44G
# notes: as for B5
# B7: RLN Analog 4 (other)
# chain: EVQLLESGGGLVQPGGSLRLSCAASGRYIDETAVAWFRQAPGKEREFVAGIGGGVDITYYADSVKGRFTISRDNSKNTLYLQMNSLRPEDTAVYYCAARPGRPLITSKVADLYPYWGQGTLVTVSSPGPQPGPQPGPQPGPQPGPQPGPQPGPQPGPQSWMEEVIKLCGRELVRAQIAICGMSTWSGGGSGGSGGGQLYSALANKCCHVGCTKRSLARFC
# notes: Single-chain fusion: VHH - (PGPQ)8 L1 - RLN2 B chain (desB1) - L2 - RLN2 A chain
# B8: RLN Analog 8 (other)
# chain: B7 chain with E44G
# notes: as for B7
# Molecular target: T1, rat serum albumin (rat, UniProt P02770 25-608)
# T1 construct: Bought protein, immobilized on a CM5 chip by amine coupling; also called Rat SA
# Assay: SPR (Biacore 8K), albumin immobilized on CM5 chip, 25 C, 1:1 kinetic fit
# Procedure: (§1) The immobilization of the serum albumin to a Series S Sensor Chip CM5 surface is performed according to the manufacturer's instructions (Amine Coupling Kit BR-1000-50). Briefly, carboxyl groups on the sensor chip surfaces (flow cell 1 and 2) are activated by injecting 70 μL of a mixture containing 75 mg/mL EDC and 11.5 mg/mL NHS at 10 μL/min. Human, cynomolgus monkey, mouse, rat, pig, dog, cow and rabbit serum albumin are diluted in 10 mM sodium acetate pH 4.0 (BR-1003-49) at […] and then injected over the activated chip surfaces (flow cell 2, channel 1 to 8) at 10 μL/min for 180 sec (human, mouse, rat, pig and cow serum albumin are obtained from Sigma Aldrich (St. Louis, MO); cynomolgus monkey serum albumin is obtained from Hölzel Diagnostika (Cologne, Germany); dog serum albumin is obtained from Molecular Innovations (Novi, MI); and rabbit serum albumin is obtained from Fitzgerald Industries Intl. (Acton, MA). The various serum albumins are covalently immobilized through free amines onto a carboxymethyl dextran-coated sensor chip CM5 targeting a surface density of about 100 (62-145) RU. Excess reactive groups on the surfaces (flow cell 1 and 2) are deactivated by injecting 70 μL of 1 M ETA HCl—NaOH pH 8.5.
# (§2) 150 μl of sample is individually injecting sequentially across the immobilized serum albumins on the chip's surface and dissociating for 600 sec at 50 μL/min flow rate at 25° C. The surface is regenerated by injecting 10 mM glycine-HCl pH 1.5 (BR-1003-54) at 50 μL/min for 100 sec. The resulting sensorgrams are analyzed using Biacore 8K Insight Evaluation Software (version 2.0.15.12933) 1:1 binding kinetics model fitting to calculate the binding kinetic parameter association rate (ka), dissociation rate (kd), and equilibrium dissociation constant (KD).
Kd,koff,kon,Binder
1.6 nM,0.0027 s⁻¹,1.7e+06 M⁻¹ s⁻¹,B1
1.4 nM,0.0028 s⁻¹,2e+06 M⁻¹ s⁻¹,B2
2.1 nM,0.0026 s⁻¹,1.2e+06 M⁻¹ s⁻¹,B3
2.2 nM,0.0032 s⁻¹,1.4e+06 M⁻¹ s⁻¹,B4
1.3 nM,0.0028 s⁻¹,2.1e+06 M⁻¹ s⁻¹,B5
1.7 nM,0.0033 s⁻¹,2e+06 M⁻¹ s⁻¹,B6
2.1 nM,0.0026 s⁻¹,1.2e+06 M⁻¹ s⁻¹,B7
1.7 nM,0.0028 s⁻¹,1.6e+06 M⁻¹ s⁻¹,B8

# Molecular target: T2, human serum albumin (human, UniProt P02768 25-609)
# T2 construct: Bought protein, immobilized on a CM5 chip by amine coupling; also called Human SA
# Assay: as above
# Procedure: as §1, §2
Kd,koff,kon,Binder
0.076 nM,0.00011 s⁻¹,1.4e+06 M⁻¹ s⁻¹,B1
0.063 nM,0.00012 s⁻¹,1.9e+06 M⁻¹ s⁻¹,B2
0.11 nM,0.00011 s⁻¹,980000 M⁻¹ s⁻¹,B3
0.16 nM,0.00019 s⁻¹,1.2e+06 M⁻¹ s⁻¹,B4
0.17 nM,0.00021 s⁻¹,1.2e+06 M⁻¹ s⁻¹,B5
0.14 nM,0.00019 s⁻¹,1.4e+06 M⁻¹ s⁻¹,B6
0.089 nM,0.00011 s⁻¹,1.2e+06 M⁻¹ s⁻¹,B7
0.078 nM,0.00011 s⁻¹,1.5e+06 M⁻¹ s⁻¹,B8

# Molecular target: T3, mouse serum albumin (mouse, UniProt P07724 25-608)
# T3 construct: Bought protein, immobilized on a CM5 chip by amine coupling; also called Mouse SA
# Assay: as above
# Procedure: as §1, §2
Kd,koff,kon,Binder
2.4 nM,0.004 s⁻¹,1.7e+06 M⁻¹ s⁻¹,B1
2.1 nM,0.0041 s⁻¹,2e+06 M⁻¹ s⁻¹,B2
3.3 nM,0.0042 s⁻¹,1.3e+06 M⁻¹ s⁻¹,B3
3.1 nM,0.0046 s⁻¹,1.5e+06 M⁻¹ s⁻¹,B4
3.6 nM,0.005 s⁻¹,1.4e+06 M⁻¹ s⁻¹,B5
2.6 nM,0.0049 s⁻¹,1.8e+06 M⁻¹ s⁻¹,B6
3 nM,0.0039 s⁻¹,1.3e+06 M⁻¹ s⁻¹,B7
1.8 nM,0.0039 s⁻¹,2.2e+06 M⁻¹ s⁻¹,B8

# Molecular target: T4, dog serum albumin (dog, UniProt P49822 25-608)
# T4 construct: Bought protein, immobilized on a CM5 chip by amine coupling; also called Dog SA
# Assay: as above
# Procedure: as §1, §2
Kd,koff,kon,Binder
0.7 nM,0.0014 s⁻¹,2e+06 M⁻¹ s⁻¹,B1
0.69 nM,0.0015 s⁻¹,2.2e+06 M⁻¹ s⁻¹,B2
1.2 nM,0.0015 s⁻¹,1.3e+06 M⁻¹ s⁻¹,B3
1.1 nM,0.0017 s⁻¹,1.5e+06 M⁻¹ s⁻¹,B4
1.3 nM,0.0017 s⁻¹,1.4e+06 M⁻¹ s⁻¹,B5
0.77 nM,0.0016 s⁻¹,2.1e+06 M⁻¹ s⁻¹,B6
1 nM,0.0014 s⁻¹,1.4e+06 M⁻¹ s⁻¹,B7
0.66 nM,0.0015 s⁻¹,2.3e+06 M⁻¹ s⁻¹,B8

# Molecular target: T5, cynomolgus monkey serum albumin (cynomolgus monkey, UniProt A2V9Z4 25-608)
# T5 construct: Bought protein, immobilized on a CM5 chip by amine coupling; also called Cyno SA
# Assay: as above
# Procedure: as §1, §2
Kd,koff,kon,Binder
0.36 nM,0.00054 s⁻¹,1.5e+06 M⁻¹ s⁻¹,B1
0.29 nM,0.00059 s⁻¹,2.1e+06 M⁻¹ s⁻¹,B2
0.5 nM,0.00053 s⁻¹,1.1e+06 M⁻¹ s⁻¹,B3
0.61 nM,0.00068 s⁻¹,1.1e+06 M⁻¹ s⁻¹,B4
0.48 nM,0.00064 s⁻¹,1.3e+06 M⁻¹ s⁻¹,B5
0.47 nM,0.0007 s⁻¹,1.5e+06 M⁻¹ s⁻¹,B6
0.42 nM,0.00053 s⁻¹,1.3e+06 M⁻¹ s⁻¹,B7
0.32 nM,0.00059 s⁻¹,1.9e+06 M⁻¹ s⁻¹,B8

# Molecular target: T6, pig serum albumin (pig, UniProt P08835 25-607)
# T6 construct: Bought protein, immobilized on a CM5 chip by amine coupling; also called Pig SA
# Assay: as above
# Procedure: as §1, §2
Kd,koff,kon,Binder
4.8 nM,0.0053 s⁻¹,1.1e+06 M⁻¹ s⁻¹,B1
3.7 nM,0.0054 s⁻¹,1.5e+06 M⁻¹ s⁻¹,B2
7.1 nM,0.0055 s⁻¹,780000 M⁻¹ s⁻¹,B3
6 nM,0.0058 s⁻¹,970000 M⁻¹ s⁻¹,B4
7.3 nM,0.0062 s⁻¹,850000 M⁻¹ s⁻¹,B5
4.2 nM,0.0058 s⁻¹,1.4e+06 M⁻¹ s⁻¹,B6
6.2 nM,0.0053 s⁻¹,860000 M⁻¹ s⁻¹,B7
4.1 nM,0.0052 s⁻¹,1.3e+06 M⁻¹ s⁻¹,B8

# Molecular target: T7, cow serum albumin (cow, UniProt P02769 25-607)
# T7 construct: Bought protein, immobilized on a CM5 chip by amine coupling; also called Cow SA
# Assay: as above
# Procedure: as §1, §2
Kd,koff,kon,Binder
37 nM,0.05 s⁻¹,1.4e+06 M⁻¹ s⁻¹,B3

# Molecular target: T8, rabbit serum albumin (rabbit, UniProt P49065 25-608)
# T8 construct: Bought protein, immobilized on a CM5 chip by amine coupling; also called Rabbit SA
# Assay: SPR (Biacore 8K), albumin immobilized on CM5 chip, 25 C
# Procedure: as §1, §2
row,Binder,binding result
1,B1,no binding (tested: 1000 nM (highest concentration tested))
2,B2,no binding (tested: 1000 nM (highest concentration tested))
3,B3,no binding (tested: 1000 nM (highest concentration tested))
4,B4,no binding (tested: 1000 nM (highest concentration tested))
5,B5,no binding (tested: 1000 nM (highest concentration tested))
6,B6,no binding (tested: 1000 nM (highest concentration tested))
7,B7,no binding (tested: 1000 nM (highest concentration tested))
8,B8,no binding (tested: 1000 nM (highest concentration tested))

# Molecular target: T7, cow serum albumin
# Assay: SPR (Biacore 8K), albumin immobilized on CM5 chip, 25 C, steady state
# Procedure: as §1
# 150 μl of sample is individually injecting sequentially across the immobilized serum albumins on the chip's surface and dissociating for 600 sec at 50 μL/min flow rate at 25° C. The surface is regenerated by injecting 10 mM glycine-HCl pH 1.5 (BR-1003-54) at 50 μL/min for 100 sec. The resulting sensorgrams are analyzed using Biacore 8K Insight Evaluation Software ([…]).
row,Kd,Binder
1,26 nM,B1
2,25 nM,B2
3,34 nM,B4
4,27 nM,B5
5,30 nM,B6
6,37 nM,B7
7,21 nM,B8
